Data on one substance can be found in patent US20130115677.

What all share (assay): cleavage_in_vitro
The target in series [1] is T1, HpaI (Haemophilus parainfluenzae) (UniProt P29537).
T1 sequence: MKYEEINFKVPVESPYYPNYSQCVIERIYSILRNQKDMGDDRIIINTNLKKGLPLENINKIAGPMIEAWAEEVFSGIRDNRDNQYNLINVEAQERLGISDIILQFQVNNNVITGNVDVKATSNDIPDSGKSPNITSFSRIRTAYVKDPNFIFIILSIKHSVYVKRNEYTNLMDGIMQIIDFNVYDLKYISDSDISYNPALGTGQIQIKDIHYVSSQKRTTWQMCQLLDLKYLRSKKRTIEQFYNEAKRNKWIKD
As to conditions: NEB4, 37 C, Mg2+.

Series [2] has as its system T2, BspQI (Bacillus sphaericus).
T2 sequence: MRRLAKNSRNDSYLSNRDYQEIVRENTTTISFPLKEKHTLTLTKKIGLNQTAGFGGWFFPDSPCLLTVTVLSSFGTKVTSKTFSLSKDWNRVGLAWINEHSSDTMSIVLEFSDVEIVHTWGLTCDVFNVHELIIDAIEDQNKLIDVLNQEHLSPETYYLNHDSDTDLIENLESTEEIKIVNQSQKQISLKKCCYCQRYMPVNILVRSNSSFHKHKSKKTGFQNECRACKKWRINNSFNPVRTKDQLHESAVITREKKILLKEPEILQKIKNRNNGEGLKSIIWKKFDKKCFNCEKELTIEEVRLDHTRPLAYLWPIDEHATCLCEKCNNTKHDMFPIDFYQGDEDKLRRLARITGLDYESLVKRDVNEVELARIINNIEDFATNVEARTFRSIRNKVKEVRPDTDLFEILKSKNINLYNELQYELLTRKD
As to conditions: NEB4, 50 C, Mg2+.

Series [3] concerns T3, NcoI-HF A2T/R31A (Nocardia corallina).
T3 sequence: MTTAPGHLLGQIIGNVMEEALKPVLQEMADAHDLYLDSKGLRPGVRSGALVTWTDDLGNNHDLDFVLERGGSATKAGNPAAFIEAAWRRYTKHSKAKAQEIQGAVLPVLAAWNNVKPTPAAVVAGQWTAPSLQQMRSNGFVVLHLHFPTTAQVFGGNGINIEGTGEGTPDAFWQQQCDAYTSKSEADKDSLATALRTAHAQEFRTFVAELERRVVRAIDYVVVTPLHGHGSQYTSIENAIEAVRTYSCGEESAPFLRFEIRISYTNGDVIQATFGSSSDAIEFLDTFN
As to conditions: NEB4, 37 C, Mg2+.

The subject of series [4] is BstXI. As to conditions: NEB4, 55 C, Mg2+.
The target in series [5] is EcoRI(K62A) K62A (Escherichia coli RY13) (UniProt P00642). As to conditions: NEB4, 37 C, Mg2+.

Take lambda DNA: the activity (fidelity index) in series [1] was 16; in series [2], 4; in series [3], > 64000; in series [4], 4; in series [5], 32000.
